Results reported in patent US20230094162A1 (MacroGenics, published 2023).
Where two headings read alike, the source gives them in different places.

Columns and labels:
[1] = target: T1, PD-L1 expressed on the cell surface (CHO/PD-L1 cells) (UniProt Q9NZQ7 19-290); assay: cell-based or functional assay
[2] = target: T1, PD-L1 expressed on the cell surface …; assay: cell-based or functional assay; remark: listed apart in the source
[3] = target: T2, CD137 expressed on the cell surface (CHO/CD137 cells) (UniProt Q07011 24-255, limits assumed); assay: flow cytometry (FACS) on CHO cells expressing CD137, MFI
T2 construct: whole, on cells; also called cell surface CD137; Jurkat-NF-κB-Luc reporter cells overexpressing CD137
Method: FACS analysis to evaluate the test articles for binding to cell surface CD137 was performed essentially as follows: 100 μL of CHO cells expressing CD137 (CHO/CD137) (1.0×10⁵ to 1×10⁶ cells/well) and 100 μL of serially diluted test article or control was added to each well of microtiter assay plate(s), mixed and incubated at RT for about 30 min. The cells were washed with FACS Buffer and secondary antibody (goat anti-human-APC, PE, or FITC) was then added to each well (1:1000), after which, the components were mixed and the wells were incubated at RT for about 30 min. Cells were washed and resuspended in 250 μL FACS Buffer and analyzed by flow cytometry (BD LSR Fortessa or FACSCanto II) for cell events collection. Data analysis were performed via FloJo v10.

[4] = target: T3, soluble PD-L1 fused to a His tag (shPD-L1) (UniProt Q9NZQ7 19-238, limits assumed); assay: ELISA on plate-coated shPD-L1-his, anti-human kappa-HRP detection, RLU
T3 construct: the species of shPD-L1 is not written out; also called shPD-L1-his; not shown: His tag
Method: ELISA assays to evaluate the test articles for CD137 binding were performed essentially as follows: flat bottom maxisorb 96-well plates were coated with soluble human or cynomolgus monkey CD137 (the extracellular domain of human or cynomolgus monkey CD137 fused to a His tag (shCD137 His or scyCD137 His) or to a human Fc Region (shCD137 hFc or scyCD137 hFc)), each at 0.5 or 1 μg/mL. The plates were washed, blocked with PBS buffer containing 0.5% bovine serum albumin and 0.1% Tween20, and incubated with a test article (e.g., cell supernatants or purified mAb). For the hybridoma supernatants anti-CD137 antibody was utilized at 1.0 μg/mL and six three-fold serial dilutions. The amount of test article binding to the immobilized CD137 (human or cynomolgus monkey) was assessed using a goat anti-mouse IgG-HRP secondary antibody. All samples were analyzed on a plate reader (Victor 2 Wallac, Perkin Elmer) and EC50 values were calculated from dose-response curves by nonlinear regression analysis.
The binding of Fab fragments comprising different combinations of these substitutions to shPD-L1-his was evaluated by ELISA essentially as described above except a goat anti-human kappa-HRP secondary antibody was used.

T1 sequence (Q9NZQ7 19-290): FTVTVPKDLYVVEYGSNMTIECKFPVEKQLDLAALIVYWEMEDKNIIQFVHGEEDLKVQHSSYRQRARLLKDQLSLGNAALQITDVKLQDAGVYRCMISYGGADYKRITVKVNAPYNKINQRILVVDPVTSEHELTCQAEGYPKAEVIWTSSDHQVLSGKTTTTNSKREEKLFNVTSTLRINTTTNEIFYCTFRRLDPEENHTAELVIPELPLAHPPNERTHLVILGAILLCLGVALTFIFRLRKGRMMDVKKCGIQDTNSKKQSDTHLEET
T3 sequence (Q9NZQ7 19-238 limits assumed): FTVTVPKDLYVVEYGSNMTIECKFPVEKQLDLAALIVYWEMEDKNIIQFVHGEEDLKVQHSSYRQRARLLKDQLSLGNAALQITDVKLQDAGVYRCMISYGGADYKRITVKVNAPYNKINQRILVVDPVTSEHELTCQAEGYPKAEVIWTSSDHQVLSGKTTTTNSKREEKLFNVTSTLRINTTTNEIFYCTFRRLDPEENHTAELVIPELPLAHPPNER
T2 sequence (Q07011 24-255 limits assumed): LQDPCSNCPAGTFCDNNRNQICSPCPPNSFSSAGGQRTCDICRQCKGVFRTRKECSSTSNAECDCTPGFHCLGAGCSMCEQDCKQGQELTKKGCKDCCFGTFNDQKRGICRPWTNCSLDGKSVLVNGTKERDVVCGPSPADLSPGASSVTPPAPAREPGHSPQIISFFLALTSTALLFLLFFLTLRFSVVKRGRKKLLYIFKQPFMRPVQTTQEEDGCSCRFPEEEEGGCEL

EC50 (read off the curve) [1] | binding result [4] | Binder | also measured
~0.1 µg/mL |  | DART-A9 (bispecific antibody) chain 1: DIQMTQSPSSLSASVGDRVTITCKASQDVNEAVAWYQQKPGKAPKLLIYWASTRHTGVPSRFSGSGSGTDFTLTISSLQPEDFATYYCQQHYNTPLTFGQGTKVEIKGGGSGGGGQVQLQESGPGLVKPSETLSLTCTVSGGSISSYYWSWIRQPPGKGLEWIGRIYTSGSTNYNPSLKSRVTMSVDTSKNQFSLKLSSVTAADTAVYYCARDGWYDEDYNYYGMDVWGQGTTVTVSSGGCGGGEVAACEKEVAALEKEVAALEKEVAALEKLEPKSADKTHTCPPCPAPEAAGGPSVFLFPPKPKDTLYITREPEVTCVVVDVSHEDPEVKFNWYVDGVEVHNAKTKPREEQYNSTYRVVSVLTVLHQDWLNGKEYKCKVSNKALPAPIEKTISKAKGQPREPQVYTLPPSREEMTKNQVSLTCLVKGFYPSDIAVEWESNGQPENNYKTTPPVLDSDGSFFLYSKLTVDKSRWQQGNVFSCSVMHEALHNHYTQKSLSLSPGK chain 2: EIVMTQSPATLSLTPGERATLSCRASQSVSSNYLSWFQQIPGQAPRLLIYGASTRATGIPARFSGSGSGTDFTLTISSLQPEDFAVYYCQQDYDLPWTFGQGTKVEIKGGGSGGGGEVQLVESGGGLVQPGGSLRLSCAASGFTFSSYTMSWVRQAPGKGLEWVAYISIGGGTTYYPDTVKGRFTISRDNAKNSLYLQMNSLRAEDTAVYYCARAGLPYYGDYWGQGTLVTVSSGGCGGGKVAACKEKVAALKEKVAALKEKVAALKE | 
 | binds | hPD-L1 MAB-2E (Fab) (Fab, V domains shown, Fab fragment) VH: EVQLVESGGGLVQPGGSLRLSCAASGFTFSSYTMSWVRQAPGKGLEWVAYISIKGGTTYYPDTVKGRFTISRDNAKNTLYLQMNSLKTEDTAVYYCARAGLPYYFDYWGQGTLVTVSS VL: DIQMTQSPSSLSASVGDRVTITCKASQLVNTAVAWYQQKPGKAPKLLIYWASTRHTGVPSRFSGSGSGTDFTLTISSLQPEDFATYYCQQHYNTPLTFGQGTKVEIK | 
 | binds | hPD-L1 MAB-2D (Fab) (Fab, V domains shown, Fab fragment) VH: EVQLVESGGGLVQPGGSLRLSCAASGFTFSSYTMSWVRQAPGKGLEWVAYISIGGGTTYYPDTVKGRFTISRDNAKNTLYLQMNSLKTEDTAVYYCARQGLPYYGDYWGQGTLVTVSS VL: DIQMTQSPSSLSASVGDRVTITCKASQLVNTAVAWYQQKPGKAPKLLIYWAETRHTGVPSRFSGSGSGTDFTLTISSLQPEDFATYYCQQHYNTPLTFGQGTKVEIK | 
 | binds | hPD-L1 MAB-2C (Fab) (Fab, V domains shown, Fab fragment) VH: EVQLVESGGGLVQPGGSLRLSCAASGFTFSGYTMSWVRQAPGKGLEWVAYISIKGGTTYYPDTVKGRFTISRDNAKNTLYLQMNSLKTEDTAVYYCARQGLPYYGDYWGQGTLVTVSS VL: DIQMTQSPSSLSASVGDRVTITCKASQLVNTAVAWYQQKPGKAPKLLIYWASTRHTGVPSRFSGSGSGTDFTLTISSLQPEDFATYYCQQHYNTPLTFGQGTKVEIK | 

Further lines, the binder ahead of its results:

Binder | EC50 (read off the curve) [1] | binding result [4] | also measured
DART-A7 (bispecific antibody, Tetravalent; CD137 MAB-6(1.1) and hPD-L1 MAB-2(4.2)) chain 1: DIQMTQSPSSLSASVGDRVTITCKASQDVNEAVAWYQQKPGKAPKLLIYWASTRHTGVPSRFSGSGSGTDFTLTISSLQPEDFATYYCQQHYNTPLTFGQGTKVEIKGGGSGGGGQVQLQESGPGLVKPSETLSLTCTVSGGSISSYYWSWIRQPPGKGLEWIGRIYTSGSTNYNPSLKSRVTMSVDTSKNQFSLKLSSVTAADTAVYYCARDGWYDEDYNYYGMDVWGQGTTVTVSSGGCGGGEVAACEKEVAALEKEVAALEKEVAALEKLEPKSADKTHTCPPCPAPEAAGGPSVFLFPPKPKDTLYITREPEVTCVVVDVSHEDPEVKFNWYVDGVEVHNAKTKPREEQYNSTYRVVSVLTVLHQDWLNGKEYKCKVSNKALPAPIEKTISKAKGQPREPQVYTLPPSREEMTKNQVSLTCLVKGFYPSDIAVEWESNGQPENNYKTTPPVLDSDGSFFLYSKLTVDKSRWQQGNVFSCSVMHEALHNHYTQKSLSLSPGK chain 2: EIVMTQSPATLSLTPGERATLSCRASQSVSSNYLSWFQQIPGQAPRLLIYGASTRATGIPARFSGSGSGTDFTLTISSLQPEDFAVYYCQQDYDLPWTFGQGTKVEIKGGGSGGGGEVQLVESGGGLVQPGGSLRLSCAASGFTFSSYTMSWVRQAPGKGLEWVAYISIGGGTTYYPDTVKGRFTISRDNAKNSLYLQMNSLRAEDTAVYYCARAGLPYYFDYWGQGTLVTVSSGGCGGGKVAACKEKVAALKEKVAALKEKVAALKE | ~0.1 µg/mL |  | EC50 (read off the curve) [2]: ~0.2 µg/mL; EC50 (read off the curve) [3]: ~0.05 µg/mL
DART-A8 (bispecific antibody) chain 1: DIQMTQSPSSLSASVGDRVTITCKASQDVNEAVAWYQQKPGKAPKLLIYWASTRHTGVPSRFSGSGSGTDFTLTISSLQPEDFATYYCQQHYNTPLTFGQGTKVEIKGGGSGGGGQVQLQESGPGLVKPSETLSLTCTVSGGSISSYYWSWIRQPPGKGLEWIGRIYTSGSTNYNPSLKSRVTMSVDTSKNQFSLKLSSVTAADTAVYYCARDGWYDEDYNYYGMDVWGQGTTVTVSSGGCGGGEVAACEKEVAALEKEVAALEKEVAALEKLEPKSADKTHTCPPCPAPEAAGGPSVFLFPPKPKDTLYITREPEVTCVVVDVSHEDPEVKFNWYVDGVEVHNAKTKPREEQYNSTYRVVSVLTVLHQDWLNGKEYKCKVSNKALPAPIEKTISKAKGQPREPQVYTLPPSREEMTKNQVSLTCLVKGFYPSDIAVEWESNGQPENNYKTTPPVLDSDGSFFLYSKLTVDKSRWQQGNVFSCSVMHEALHNHYTQKSLSLSPGK chain 2: EIVMTQSPATLSLTPGERATLSCRASQSVSSNYLSWFQQIPGQAPRLLIYGASTRATGIPARFSGSGSGTDFTLTISSLQPEDFAVYYCQQDYDLPWTFGQGTKVEIKGGGSGGGGEVQLVESGGGLVQPGGSLRLSCAASGFTFSSYTMSWVRQAPGKGLEWVAYISIKGGTTYYPDTVKGRFTISRDNAKNSLYLQMNSLRAEDTAVYYCARAGLPYYFDYWGQGTLVTVSSGGCGGGKVAACKEKVAALKEKVAALKEKVAALKE | ~0.1 µg/mL |  | 
DART-A10 (bispecific antibody, Tetravalent; CD137 MAB-6(1.3) and hPD-L1 MAB-2(4.2)) chain 1: DIQMTQSPSSLSASVGDRVTITCKASQDVNEAVAWYQQKPGKAPKLLIYWASTRHTGVPSRFSGSGSGTDFTLTISSLQPEDFATYYCQQHYNTPLTFGQGTKVEIKGGGSGGGGQVQLQESGPGLVKPSETLSLTCTVSGGSISSYYWSWIRQPPGKGLEWIGRIYTSGSTNYNPSLKSRVTMSVDTSKNQFSLKLSSVTAADTAVYYCARDGWYDEDYNYYGMDVWGQGTTVTVSSGGCGGGEVAACEKEVAALEKEVAALEKEVAALEKLEPKSADKTHTCPPCPAPEAAGGPSVFLFPPKPKDTLYITREPEVTCVVVDVSHEDPEVKFNWYVDGVEVHNAKTKPREEQYNSTYRVVSVLTVLHQDWLNGKEYKCKVSNKALPAPIEKTISKAKGQPREPQVYTLPPSREEMTKNQVSLTCLVKGFYPSDIAVEWESNGQPENNYKTTPPVLDSDGSFFLYSKLTVDKSRWQQGNVFSCSVMHEALHNHYTQKSLSLSPGK chain 2: EIVMTQSPATLSLSPGERATLSCRASQSVSSNYLSWFQQKPGQAPRLLIYGASTRATGIPARFSGSGSGTDFTLTISSLQPEDFAVYYCQQDYDLPWTFGQGTKVEIKGGGSGGGGEVQLVESGGGLVQPGGSLRLSCAASGFTFSSYTMSWVRQAPGKGLEWVAYISIGGGTTYYPDTVKGRFTISRDNAKNSLYLQMNSLRAEDTAVYYCARAGLPYYFDYWGQGTLVTVSSGGCGGGKVAACKEKVAALKEKVAALKEKVAALKE |  |  | EC50 (read off the curve) [2]: ~0.2 µg/mL; EC50 (read off the curve) [3]: ~0.05 µg/mL
hPD-L1 MAB-2A (Fab) (Fab, V domains shown, Fab fragment) VH: EVQLVESGGGLVQPGGSLRLSCAASGFTFSGYTMSWVRQAPGKGLEWVAYISIKGGTTYYPDTVKGRFTISRDNAKNTLYLQMNSLKTEDTAVYYCARAGLPYYFDYWGQGTLVTVSS VL: DIQMTQSPSSLSASVGDRVTITCKASQHVNTAVAWYQQKPGKAPKLLIYWASTRHTGVPSRFSGSGSGTDFTLTISSLQPEDFATYYCQQHYNTPLTFGQGTKVEIK |  | binds | 
hPD-L1 MAB-2B (Fab) (Fab, V domains shown, Fab fragment) VH: EVQLVESGGGLVQPGGSLRLSCAASGFTFSGYTMSWVRQAPGKGLEWVAYISIKGGTTYYPDTVKGRFTISRDNAKNTLYLQMNSLKTEDTAVYYCARGGLPYYFDYWGQGTLVTVSS VL: DIQMTQSPSSLSASVGDRVTITCKASQVVNTAVAWYQQKPGKAPKLLIYWASTRHTGVPSRFSGSGSGTDFTLTISSLQPEDFATYYCQQHYNTPLTFGQGTKVEIK |  | binds | 
